The values below come from patent US20240084017A1.

The target in assay [1] is human Mac-1 (integrin αMβ2, CD11b/CD18) (human) (UniProt P11215). Put plainly: flow cytometry, HEK293/Mac-1 cells, PBS/MnCl2 (Mn2+); binding of reporter mAb KIM127 read; control IgG4, the reference set to 1.
The target is the same in assay [2]. The assay can be described thus: flow cytometry, HEK293/Mac-1 cells, PBS (Mock); binding of reporter mAb m24 read; control IgG4, the reference set to 1.
The target is the same in assay [3]. Put plainly: flow cytometry, HEK293/Mac-1 cells, PBS/MnCl2 (Mn2+); binding of reporter mAb m24 read; control IgG4, the reference set to 1.
Assay [4] has the same target. The assay can be described thus: flow cytometry, HEK293/Mac-1 cells, PBS (Mock); binding of reporter mAb KIM127 read; control IgG4, the reference set to 1.
Assay [5] has the same target. Put plainly: flow cytometry, HEK293/Mac-1 cells, PBS/MnCl2 (Mn2+), 10 µg/ml of this antibody; binding of reporter mAb m24 read.
For assay [6] the target is unchanged. Put plainly: flow cytometry, HEK293/Mac-1 cells, PBS (Mock), 10 µg/ml of this antibody; binding of reporter mAb m24 read.
The target is the same in assay [7]. Put plainly: flow cytometry, HEK293/Mac-1 cells, PBS (Mock), 10 µg/ml of this antibody; binding of reporter mAb KIM127 read.
For assay [8] the target is unchanged. Put plainly: flow cytometry, HEK293/Mac-1 cells, PBS/MnCl2 (Mn2+), 10 µg/ml of this antibody; binding of reporter mAb KIM127 read.
The target is the same in assay [9]. Put plainly: flow cytometry, HEK293/Mac-1 cells (clone 1-4), PBS (Mock); isotype control.
Assay [10] shares this target. Put plainly: flow cytometry, HEK293/Mac-1 cells; MFI in PBS over MFI in PBS/MnCl2; isotype control.
For assay [11] the target is unchanged. Put plainly: flow cytometry, HEK293/Mac-1 cells (clone 1-4), PBS/MnCl2 (Mn2+); isotype control.
Assay [12] has the same target. The assay can be described thus: flow cytometry, HEK293/Mac-1 cells (clone 1-4), PBS/MnCl2 (Mn2+).
Assay [13] has the same target. The assay can be described thus: flow cytometry, HEK293/Mac-1 cells; MFI in PBS over MFI in PBS/MnCl2.
Assay [14] has the same target. Put plainly: flow cytometry, HEK293/Mac-1 cells (clone 1-4), PBS (Mock).

Consider IgG4 control (antibody), for which the KIM127 (Expression relative to IgG4) (relative to IgG4) in assay [1] and in assay [4] was 1 each time. In addition, the m24 (Expression relative to IgG4) (relative to IgG4) in assay [2] and in [3] was 1 in each case.

Take M1/70 (antibody): the values for the m24 (Expression relative to IgG4) (relative to IgG4) in assay [5] and in assay [6] were 0.8 and 0.71, respectively. Besides, the KIM127 (Expression relative to IgG4) (relative to IgG4) in assay [7] was determined as 0.94; in [8], 0.84.

In turn, isotype control IgG (antibody) had a Mock MFI in assay [9] of 941 MFI. The Mock/Mn^2+ Ratio in assay [10] is 1.01. This substance displayed a Mn^2+ MFI in [11] of 935 MFI.

As to “CD11b specific mAb (clone ICRF44) (antibody)”, the Mn^2+ MFI in assay [12] was found to be 801000 MFI. Further, the m24 (Expression relative to IgG4) (relative to IgG4) in assay [5] and in assay [6] was 0.66 throughout. Further, the Mock/Mn^2+ Ratio in assay [13] was found to be 1.01. In assay [14], this substance returned a Mock MFI of 805000 MFI. In addition, the KIM127 (Expression relative to IgG4) (relative to IgG4) in assay [7] stood at 0.94; in [8] it was 0.75.

As to “CD11b activation-sensing mAb (CBRM1/5) (antibody)”, the Mn^2+ MFI in assay [12] is 181000 MFI. Also, the Mock/Mn^2+ Ratio in assay [13] came to 0.79. In addition, the Mock MFI in assay [14] came to 143000 MFI.
